Test in all cases: peptide SPOT array, c-Myc-tagged receptor at 1 uM or 100 nM, anti-c-Myc-Cy3
The target of one assay is Bcl-xL, Q07817.
In the next assay the target is T1, Bfl-1, Q16548.
T1 chain: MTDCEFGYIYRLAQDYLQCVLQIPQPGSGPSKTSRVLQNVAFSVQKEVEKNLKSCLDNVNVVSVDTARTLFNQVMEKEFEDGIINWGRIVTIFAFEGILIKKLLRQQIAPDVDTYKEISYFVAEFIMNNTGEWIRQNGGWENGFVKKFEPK

Another assay addresses T2, Mcl-1, Q07820.
T2 chain: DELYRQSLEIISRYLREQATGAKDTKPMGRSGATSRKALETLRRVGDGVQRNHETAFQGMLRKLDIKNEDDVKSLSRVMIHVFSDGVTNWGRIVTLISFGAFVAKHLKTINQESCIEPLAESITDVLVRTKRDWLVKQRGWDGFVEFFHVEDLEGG

Another assay deals with Bcl-2, P10415.
Another assay deals with T3, Bcl-w, Q92843.
T3 chain: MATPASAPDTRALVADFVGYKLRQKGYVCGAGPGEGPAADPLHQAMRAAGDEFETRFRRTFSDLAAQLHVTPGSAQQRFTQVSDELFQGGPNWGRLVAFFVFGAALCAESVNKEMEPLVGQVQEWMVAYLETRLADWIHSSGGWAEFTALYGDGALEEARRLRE

Bcl-xL, Q07817, sequence (Q07817 1-209): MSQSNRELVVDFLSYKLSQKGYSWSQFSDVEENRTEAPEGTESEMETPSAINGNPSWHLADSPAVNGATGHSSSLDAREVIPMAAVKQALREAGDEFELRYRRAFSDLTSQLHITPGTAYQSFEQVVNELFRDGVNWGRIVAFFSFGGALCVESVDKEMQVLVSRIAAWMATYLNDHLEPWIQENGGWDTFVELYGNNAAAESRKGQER
Bcl-2, P10415, sequence (P10415 1-217): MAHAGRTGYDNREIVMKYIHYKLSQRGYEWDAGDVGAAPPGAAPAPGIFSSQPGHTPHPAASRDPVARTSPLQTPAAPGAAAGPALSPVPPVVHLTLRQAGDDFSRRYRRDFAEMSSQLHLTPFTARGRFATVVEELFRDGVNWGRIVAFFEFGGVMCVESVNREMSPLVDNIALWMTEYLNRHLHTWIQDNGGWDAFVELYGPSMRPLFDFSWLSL

With SMRRNAMGVGLVFEADLFTTRHISHW [DNAH10], the SPOT signal as a fraction of Bim BH3's signal on the same receptor and array with Bcl-xL, Q07817 was 0.24; with Bfl-1, Q16548, 0.3; with Mcl-1, Q07820, 0.32.

Take AELEVECATQDRRFGDKLNFRQKLLN [PMAIP1]: the SPOT signal as a fraction of Bim BH3's signal on the same receptor and array with Bcl-xL, Q07817 stood at 0.06; in the assay with Bfl-1, Q16548 it was 0.07; with Mcl-1, Q07820, 0.05.

On to AFGLGDLPNLLGLVLDQLGDTERKRR [ADAMTS14], for which the SPOT signal as a fraction of Bim BH3's signal on the same receptor and array with Bcl-xL, Q07817 was 0.07; with Bfl-1, Q16548, 0.05; in the assay with Mcl-1, Q07820, 0.06.

As for SQGKHGFTMADNAFGDMTNEEFRQMM [CTSL2], the SPOT signal as a fraction of Bim BH3's signal on the same receptor and array came to 0.06 with Bcl-xL, Q07817; 0.05 with Bfl-1, Q16548; 0.06 with Mcl-1, Q07820.

With ISSLDLLPYGLRYIAKVLKNSIHEKF [IQGAP2], the SPOT signal as a fraction of Bim BH3's signal on the same receptor and array turned out to be 0.8 with Bcl-xL, Q07817; 0.64 with Bfl-1, Q16548; 0.57 with Mcl-1, Q07820.

Take VKVLGKAVHSLSRIGDELYLEPLEDG [RAD9A]: the SPOT signal as a fraction of Bim BH3's signal on the same receptor and array in the assay with Bcl-2, P10415 was 0.01; with Bcl-w, Q92843, 0.02; with Bfl-1, Q16548, 0.03.

For TSRINEVQVNDSLLGDDLLLPAQSTL [SPHKAP], the SPOT signal as a fraction of Bim BH3's signal on the same receptor and array with Bcl-xL, Q07817 stood at 0.05; with Bfl-1, Q16548, 0.03; in the assay with Mcl-1, Q07820 it was 0.03.

With QAGPVSSGLALRKLGDRVQLLNLLVT [CCDC57], the SPOT signal as a fraction of Bim BH3's signal on the same receptor and array with Bcl-xL, Q07817 was found to be 1.06; with Bfl-1, Q16548, 0.39; with Mcl-1, Q07820, 0.57.

Consider APEEDFFSIHDRIVGDWTEGLFNACG [CYBB], for which the SPOT signal as a fraction of Bim BH3's signal on the same receptor and array in the assay with Bcl-xL, Q07817 was determined as 0.05; in the assay with Bfl-1, Q16548, 0.03; with Mcl-1, Q07820, 0.03.

In the case of QCPIFRLGDIDRETGDNFSDVAIQGG [P2RX7], the SPOT signal as a fraction of Bim BH3's signal on the same receptor and array was 0.05 with Bcl-xL, Q07817; 0.03 with Bfl-1, Q16548; 0.04 with Mcl-1, Q07820.

Take SGLPGLSSVDINNFGDSINESEGIPL [MKI67]: the SPOT signal as a fraction of Bim BH3's signal on the same receptor and array with Bcl-xL, Q07817 came out at 0.08; with Bfl-1, Q16548 it was 0.04; with Mcl-1, Q07820, 0.04.

For WLKGDILGEKDVNLADCLCNEDLESR, the SPOT signal as a fraction of Bim BH3's signal on the same receptor and array in the assay with Bcl-xL, Q07817 worked out at 0.07; with Bfl-1, Q16548 it was 0.05; with Mcl-1, Q07820, 0.04.

As for KIETTPESRYLAQILDSVSLTCSTTG [VCAM1], the SPOT signal as a fraction of Bim BH3's signal on the same receptor and array with Bcl-xL, Q07817 stood at 0.07; with Bfl-1, Q16548, 0.04; with Mcl-1, Q07820 it was 0.04.

With GYPFNDVCQWFIDRLDLIFVVFDPTK [SRL], the SPOT signal as a fraction of Bim BH3's signal on the same receptor and array in the assay with Bcl-xL, Q07817 worked out at 0.06; in the assay with Bfl-1, Q16548, 0.05; with Mcl-1, Q07820, 0.05.

In the case of WLKGDILGEKLVNLADCLCNEDLESR, the SPOT signal as a fraction of Bim BH3's signal on the same receptor and array was 0.07 in the assay with Bcl-xL, Q07817; 0.06 with Bfl-1, Q16548; 0.05 with Mcl-1, Q07820.

On to CGEWTRRSLHLRVLGRQLILPTDKGV [FAM149A], for which the SPOT signal as a fraction of Bim BH3's signal on the same receptor and array in the assay with Bcl-xL, Q07817 turned out to be 1.07; with Bfl-1, Q16548, 0.7; in the assay with Mcl-1, Q07820 it was 0.76.

With VLLTLLVAAVDRCQGQDVQEAGSCVQ [COL2A1], the SPOT signal as a fraction of Bim BH3's signal on the same receptor and array was found to be 0.05 with Bcl-xL, Q07817; 0.03 with Bfl-1, Q16548; 0.05 in the assay with Mcl-1, Q07820.

For the molecule RMIVDCVSSHLKKTLDGAKTFIIFLC [BBS10], the SPOT signal as a fraction of Bim BH3's signal on the same receptor and array in the assay with Bcl-xL, Q07817 came to 0.61; with Bfl-1, Q16548 it was 0.24; with Mcl-1, Q07820, 0.21.

On to FKAWGKFGGAFCRYLDEMKEIQERQR [PURB], for which the SPOT signal as a fraction of Bim BH3's signal on the same receptor and array with Bcl-xL, Q07817 was found to be 1.19; in the assay with Bfl-1, Q16548, 1.19; with Mcl-1, Q07820, 1.07.

Take KLALEQRCRELRARGRRLEETLPRRI [KIF19]: the SPOT signal as a fraction of Bim BH3's signal on the same receptor and array with Bcl-xL, Q07817 was 1.22; with Bfl-1, Q16548, 0.62; with Mcl-1, Q07820, 0.58.

Take LFWTPLLVVLLAGLGDTEAQQTTLHP [SGCA]: the SPOT signal as a fraction of Bim BH3's signal on the same receptor and array with Bcl-xL, Q07817 was found to be 0.06; in the assay with Bfl-1, Q16548, 0.04; with Mcl-1, Q07820 it was 0.04.

Consider CHGLRELALNDHLLSDELLLALSSEK [FBXL3], for which the SPOT signal as a fraction of Bim BH3's signal on the same receptor and array with Bcl-xL, Q07817 is 0.06; with Bfl-1, Q16548 it was 0.04; in the assay with Mcl-1, Q07820, 0.04.

Consider TRRSMVFARHLREVLDEFRSRHLNST [POFUT2], for which the SPOT signal as a fraction of Bim BH3's signal on the same receptor and array stood at 0.74 with Bcl-xL, Q07817; 0.61 with Bfl-1, Q16548; 0.9 with Mcl-1, Q07820.

In the case of SSTMGQVGRQLAIILDDINRRYDSEF [BAK1], the SPOT signal as a fraction of Bim BH3's signal on the same receptor and array in the assay with Bcl-xL, Q07817 came to 0.02; with Bfl-1, Q16548 it was 0.01; in the assay with Mcl-1, Q07820, 0.01.

MEMYQPSAVVDQCGADSLSGDRLGCF [HDAC2]: the SPOT signal as a fraction of Bim BH3's signal on the same receptor and array with Bcl-xL, Q07817 was found to be 0.06; in the assay with Bfl-1, Q16548 it was 0.03; with Mcl-1, Q07820, 0.04.

With NGGLLEFHKSDQEIGDKNDHWFDIDP [DZIP3], the SPOT signal as a fraction of Bim BH3's signal on the same receptor and array with Bcl-xL, Q07817 was 0.12; with Bfl-1, Q16548 it was 0.04; with Mcl-1, Q07820, 0.04.

Turning to FVGYNSTGAELRHWLDMLANPRRPIA [SYT1], the SPOT signal as a fraction of Bim BH3's signal on the same receptor and array with Bcl-xL, Q07817 stood at 0.32; with Bfl-1, Q16548, 0.21; with Mcl-1, Q07820 it was 0.21.

For the origin of these results see PMC4072508, “Genome-Wide Prediction and Validation of Peptides That Bind Human Prosurvival Bcl-2 Proteins” (PLoS Computational Biology, 2014).
